Measured values published in PMC5927468.

Biological target: sorting nexin 9 (SNX9) (UniProt Q9Y5X1)
Assay: anti-eGFP nanobody pulldown, SNX9 immunoblot
Conditions: reference: Dyn1a wild type-eGFP; sites S774,S778

fold change: 3.6
Substance: dynamin-1 (Dyn1a) (from UniProt Q05193) Dyn1a S774/8A-eGFP
